For test [1], the target named is AvrMla1 avirulence gene product of Erysiphe graminis f. sp. hordei (Erysiphe (=Blumeria) graminis f sp hordei).
For test [2], the target named is AvrMla6 avirulence gene product of Erysiphe graminis f. sp. hordei (Erysiphe (=Blumeria) graminis f sp hordei).
Test [3] shares this target. This is another data set of the same source.

In test [1], “MLA1 polypeptide (product of R gene A, Mla1, of barley line CI-16137, AlgR Mla1)” gave a percent of GFP-Mlo expressing cells with an attached spore that support a fungal colony (3-component single-cell assay, mlo-5 barley leaves, isolate K1) of 9.3%. This substance also registered a percent of GFP-Mlo expressing cells with an attached spore that support a fungal colony (3-component single-cell assay, mlo-5 barley leaves, isolate A6) in test [2] of 47.1%. In test [3], this substance yielded a percent of GUS stained wheat (CERCO) cells with an attached spore that contain haustorium, isolate A6 of 23.9%.

For “MLA6 polypeptide (product of Mla6 of barley line C.I. 16151)”, the percent of GFP-Mlo expressing cells with an attached spore that support a fungal colony (3-component single-cell assay, mlo-5 barley leaves, isolate K1) in test [1] is 46.5%. Besides, the percent of GFP-Mlo expressing cells with an attached spore that support a fungal colony (3-component single-cell assay, mlo-5 barley leaves, isolate A6) in test [2] was determined as 9.4%. In test [3], this substance had a percent of GUS stained wheat (CERCO) cells with an attached spore that contain haustorium, isolate A6 of 9.2%.

(Values after US20030192074A1.)
